Reference: patent US20120076787A1 (published 2012)

T1: Recombinant human B7-1 Fc Chimera (RnD Systems, 140-B1-100), biotinylated (human, UniProt P33681 35-242, biotinylated (ECL biotinylation module, GE Healthcare, at a quarter of the kit recommended level))
T1 construct: Bought reagent; also called biotinylated B7-1; Fc part of the bought chimera not given
T1 sequence (looked up): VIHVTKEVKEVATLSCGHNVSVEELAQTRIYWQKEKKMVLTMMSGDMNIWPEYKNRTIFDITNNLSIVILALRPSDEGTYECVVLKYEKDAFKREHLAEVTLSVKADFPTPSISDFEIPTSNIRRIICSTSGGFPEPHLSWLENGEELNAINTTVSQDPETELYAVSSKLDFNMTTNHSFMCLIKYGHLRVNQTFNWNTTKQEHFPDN


Legend:
[1] = target: T1, Recombinant human B7-1 Fc Chimera (RnD …); assay: bridging ELISA: coated VEGFR2 Fc, titrated control, detection with biotinylated B7-1 Fc and ExtrAvidin peroxidase
human TNFα = target: T2, human TNFα (human, UniProt P01375 77-233); assay: assay not stated (description of the dAb in Example 11)
T2 construct: also called TNF ligand; TNFα (Peprotech)
T2 sequence (P01375 77-233 limits assumed): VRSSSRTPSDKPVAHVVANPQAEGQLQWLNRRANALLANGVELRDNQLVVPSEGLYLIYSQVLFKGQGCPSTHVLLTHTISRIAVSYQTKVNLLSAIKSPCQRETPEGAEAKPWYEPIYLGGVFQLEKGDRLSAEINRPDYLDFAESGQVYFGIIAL

| binding result [1] | Kd (human TNFα) [nM] | Binder |
| --- | --- | --- |
| no binding |  | BPC1801 (bispecific IGF1R-VEGFR2 antigen binding construct) (bispecific antibody, human IgG1, kappa, Negative control of the VEGFR2/B7-1 bridging ELISA) heavy: not shown light: DIVMTQSPLSLPVTPGEPASISCRSSQSIVQSNGDTYLEWYLQKPGQSPQLLIYRVSNRFSGVPDRFSGSGSGTDFTLKISRVEAEDVGVYYCFQGSHVPYTFGQGTKLEIKRTVAAPSVFIFPPSDEQLKSGTASVVCLLNNFYPREAKVQWKVDNALQSGNSQESVTEQDSKDSTYSLSSTLTLSKADYEKHKVYACEVTHQGLSSPVTKSFNRGEC |
|  | ~8 | PEP1-5-19 (anti-TNFα dAb) (other, Vk domain antibody (dAb), monomer; also called Anti-TNFα Vk dAb (PEP1-5-19)) VL: DIQMTQSPSSLSASVGDRVTITCRASQSIDSYLHWYQQKPGKAPKLLIYSASELQSGVPSRFSGSGSGTDFTLTISSLQPEDFATYYCQQVVWRPFTFGQGTKVEIKR |
